{"source": "patent US10428342B2", "about": "“P-coumaroyl-CoA:monolignol transferase” (Wisconsin Alumni Research Foundation, priority 2011, dated 2019)", "molecules": {"B1": {"name": "OsPMT (Oryza sativa Japonica Group) (protein)", "chain": "MGFAVVRTNREFVRPSAATPPSSGELLELSIIDRVVGLRHLVRSLHIFSAAAPSGGDAKPSPARVIKEALGKALVDYYPFAGRFVDGGGGPGSARVECTGEGAWFVEAAAGCSLDDVNGLDHPLMIPEDDLLPDAAPGVHPLDLPLMMQVTEFSCGGFVVGLISVHTMADGLGAGQFINAVGDYARGLDRPRVSPVWAREAIPSPPKLPPGPPPELKMFQLRHVTADLSLDSINKAKSAYFAATGHRCSTFDVAIAKTWQARTRALRLPEPTSRVNLCFFANTRHLMAGAAAWPAPAAGGNGGNGFYGNCFYPVSVVAESGAVEAADVAGVVGMIREAKARLPADFARWAVADFREDPYELSFTYDSLFVSDWTRLGFLEADYGWGPPSHVIPFAYYPFMAVAIIGAPPVPKTGARIMTQCVEDDHLPAFKEEIKAFDK", "notes": "6xHis (N); made in house; host or cells: E. coli BL21"}}, "key": {"OsPMT": {"molecular_target": "T1, OsPMT (Oryza sativa subsp. japonica, UniProt Q5JNT2)", "T1 construct": "6xHis (N); made in house; host or cells: E. coli BL21", "T1 sequence (Q5JNT2 1-439)": "B1 chain", "experiment": "OsPMT kinetic assay (CoASH release detected with DTNB at A412)", "assay_type": "biochemical", "conditions": "for Substrate quality as acyl donor for OsPMT: tested acyl donors, in words", "method": "(§1) Kinetics—Kinetic analyses were performed using an assay modified from Santoro et al. (Anal. Biochem. 354: 70-77 (2006)). The standard 100 μL reaction mixture contained 50 mM sodium phosphate pH 6, 2 mM 5,5′-dithiobis-(2-nitrobenzoic acid) (DTNB), 0.01-1 mM CoA thioester substrate, and 0.005-1.0 mM monolignol alcohol substrate and initiated by adding 100 ng of purified OsPMT protein in 1×BSA (NEB). The CoA thioester substrates included p-coumaroyl-CoA 2a and caffeoyl-CoA 2b, and the monolignol substrates included sinapyl alcohol 1S and p-coumaryl alcohol 1H. Enzyme activity was measured as an increase in CoASH, detected with DTNB at A412, which is released as a result of monolignol conjugate synthesis (id.). The absorbance was measured every three min. for 40 min on a Spectramax Plus microplate reader using Softmax Pro 5.3 (Molecular Devices). The reactions were stopped by adding hydrochloric acid to a concentration of 100 mM, and then solubilized by adding methanol to 50%. Aliquots of 10 μL from each assay were analyzed via UPLC to verify product production. A standard curve was created for each CoA thioester from triplicate assays of five concentrations from 50 nM to 1 mM of coenzyme-A. Each reaction contained the same buffer and DTNB concentrations as the kinetic assays, along with 0.5 mM of a CoA thioester (p-coumaroyl-CoA 2a, caffeoyl-CoA 2b, or feruloyl-CoA 2c). The equation derived from fitting this standard curve was used to calculate the quantity (moles) of product synthesized in the assay. Kinetic parameters, Vmax and Km, were calculated using a nonlinear regression by entering the reaction rate and substrate concentration into the program R64, version 2.12.0 (Team, R. D. C., R: A language and environment for statistical computing, R Foundation for Statistical Computing, Vienna, Austria (2010)."}, "[1]": {"test_system": "feruloyl-CoA:monolignol transferase (FMT)", "experiment": "FMT enzymatic assay (UPLC detection of product)", "assay_type": "biochemical, Angelica sinensis", "conditions": "for Product formed by FMT from CoA thioester: CoA thioester as acyl donor, coniferyl alcohol as acceptor; for FMT activity with monolignol: monolignol as acyl acceptor, feruloyl-CoA as donor", "method": "The FMT activity assay contained 100 mM MOPS pH 6.8, 1 mM dithiothreitol (DTT), 1 mM feruloyl-CoA, 1 mM coniferyl alcohol, 3.9 μg of purified FMT protein and deionized water to a volume of 50 μL. After a 30-minute incubation, 1 μL of 10 M hydrochloric acid was added to stop the reaction. Because the product synthesized in the reaction, coniferyl ferulate (CAFA), is insoluble, 50 μL of methanol was added to solubilize the CAFA. Prior to UPLC, protein and insoluble material were removed by filtering through an Amicon Ultracel 10K membrane filter (Millipore). The flow-through was analyzed using an Acquity Ultra Performance LC with an Acquity UPLC BEH C18 1.7 μm 2.1×100 mm column and the Acquity Console and Empower 2 Software, all from Waters Corporation. The solvents used in this method were solvent A, 0.1% trifluoroacetic acid, and solvent B, 100% acetonitrile. Samples were analyzed using the following gradient conditions, 13% B, for 5 minutes, 1 minute linear gradient to 42% B, held for 4 minutes, 1 minute linear gradient to 100% B, held for 1 minutes and 3 minutes at 13% B with a flow rate of 0.3 ml/minute. This method was then used to analyze a 10 μL injection of each assay reaction; standards for each of the substrates along with chemically synthesized CAFA were used to determine retention times for each compound. Purified recombinant enzyme was assayed for FMT activity using a reaction mixture containing 2 mM coniferyl alcohol, […], 100 mM HEPES pH 7.4 and 1 mM DTT. The second most abundant BAHD acyltransferase gene when incubated with Coniferyl alcohol and feruloyl-CoA produced a compound with the retention time of authentic coniferyl ferulate (CAFA) (FIG. 2). […] The addition of methanol to 50% after stopping the enzyme with acid was required to analyze the product by UPLC. The insolubility of the product made partial purification easy as the product was separated from the substrates by centrifugation."}, "[2]": {"experiment": "Solubility observed in aqueous enzyme assay mixtures", "assay_type": "physicochemical", "conditions": "aqueous assay mixture, in words", "method": "The FMT activity assay contained 100 mM MOPS pH 6.8, 1 mM dithiothreitol (DTT), 1 mM feruloyl-CoA, 1 mM coniferyl alcohol, 3.9 μg of purified FMT protein and deionized water to a volume of 50 μL. After a 30-minute incubation, 1 μL of 10 M hydrochloric acid was added to stop the reaction. Because the product synthesized in the reaction, coniferyl ferulate (CAFA), is insoluble, 50 μL of methanol was added to solubilize the CAFA. Prior to UPLC, protein and insoluble material were removed by filtering through an Amicon Ultracel 10K membrane filter (Millipore). The flow-through was analyzed using an Acquity Ultra Performance LC with an Acquity UPLC BEH C18 1.7 μm 2.1×100 mm column and the Acquity Console and Empower 2 Software, all from Waters Corporation. The solvents used in this method were solvent A, 0.1% trifluoroacetic acid, and solvent B, 100% acetonitrile. Samples were analyzed using the following gradient conditions, 13% B, for 5 minutes, 1 minute linear gradient to 42% B, held for 4 minutes, 1 minute linear gradient to 100% B, held for 1 minutes and 3 minutes at 13% B with a flow rate of 0.3 ml/minute. This method was then used to analyze a 10 μL injection of each assay reaction; standards for each of the substrates along with chemically synthesized CAFA were used to determine retention times for each compound. […]"}, "[3]": {"substrate": "COc1cc(/C=C/CO)cc(OC)c1O", "experiment": "OsPMT kinetic assay (CoASH release detected with DTNB at A412)", "assay_type": "biochemical, Oryza sativa", "conditions": "other: varying substrate, pH 6.0", "method": "as §1"}, "[4]": {"substrate": "CC(C)(COP(=O)(O)OP(=O)(O)OC[C@H]1O[C@@H](n2cnc3c(N)ncnc32)[C@H](O)[C@@H]1OP(=O)(O)O)[C@@H](O)C(=O)NCCC(=O)NCCSC(=O)/C=C/c1ccc(O)cc1", "experiment": "OsPMT kinetic assay (CoASH release detected with DTNB at A412)", "assay_type": "biochemical, Oryza sativa", "conditions": "other: varying substrate, pH 6.0", "method": "as §1"}, "[5]": {"substrate": "OC/C=C/c1ccc(O)cc1", "experiment": "OsPMT kinetic assay (CoASH release detected with DTNB at A412)", "assay_type": "biochemical, Oryza sativa", "conditions": "other: varying substrate, pH 6.0", "method": "as §1"}, "[6]": {"substrate": "CC(C)(COP(=O)(O)OP(=O)(O)OC[C@H]1O[C@@H](n2cnc3c(N)ncnc32)[C@H](O)[C@@H]1OP(=O)(O)O)[C@@H](O)C(=O)NCCC(=O)NCCSC(=O)/C=C/c1ccc(O)c(O)c1", "experiment": "OsPMT kinetic assay (CoASH release detected with DTNB at A412)", "assay_type": "biochemical, Oryza sativa", "conditions": "other: varying substrate, pH 6.0", "method": "as §1"}, "[7]": {"conditions": "saturating substrate caffeoyl-CoA 2b"}, "[8]": {"conditions": "saturating substrate p-coumaroyl-CoA 2a"}, "[9]": {"conditions": "saturating substrate p-coumaryl alcohol 1H"}, "[10]": {"conditions": "saturating substrate sinapyl alcohol 1S"}}, "note": "“Also recorded” adds a separate entry of the source.", "data": [{"molecule": "COc1cc(/C=C/C(=O)SCCNC(=O)CCNC(=O)[C@H](O)C(C)(C)COP(=O)(O)OP(=O)(O)OC[C@H]2O[C@@H](n3cnc4c(N)ncnc43)[C@H](O)[C@@H]2OP(=O)(O)O)ccc1O", "note": "[feruloyl-CoA 2c, feruloyl-CoA]", "values": [{"measurement": "Substrate quality as acyl donor for OsPMT", "setting": "OsPMT", "result": "poor substrate"}, {"measurement": "Product formed by FMT from CoA thioester", "setting": "[1]", "result": "substantial product"}]}, {"molecule": "COc1cc(/C=C/CO)ccc1O", "note": "[coniferyl alcohol 1G, coniferyl alcohol]", "values": [{"measurement": "FMT activity with monolignol", "setting": "[1]", "result": "active"}]}, {"molecule": "COc1cc(/C=C/COC(=O)/C=C/c2ccc(O)c(OC)c2)ccc1O", "note": "[coniferyl ferulate]", "values": [{"measurement": "Solubility", "setting": "[2]", "result": "mostly insoluble in water; also recorded: partially insoluble"}]}, {"molecule": "COc1cc(/C=C/CO)cc(OC)c1O", "note": "[sinapyl alcohol 1S, sinapyl alcohol]", "values": [{"measurement": "FMT activity with monolignol", "setting": "[1]", "result": "active"}]}, {"molecule": "CC(C)(COP(=O)(O)OP(=O)(O)OC[C@H]1O[C@@H](n2cnc3c(N)ncnc32)[C@H](O)[C@@H]1OP(=O)(O)O)[C@@H](O)C(=O)NCCC(=O)NCCSC(=O)/C=C/c1ccc(O)c(O)c1", "note": "[caffeoyl-CoA 2b, caffeoyl-CoA]", "values": [{"measurement": "Substrate quality as acyl donor for OsPMT", "setting": "OsPMT", "result": "good substrates"}, {"measurement": "Product formed by FMT from CoA thioester", "setting": "[1]", "result": "very little product"}]}, {"molecule": "OC/C=C/c1ccc(O)c(O)c1", "note": "[caffeyl alcohol 1C, caffeyl alcohol]", "values": [{"measurement": "Solubility", "setting": "[2]", "result": "limited solubility"}]}, {"molecule": "OC/C=C/c1ccc(O)cc1", "note": "[p-coumaryl alcohol 1H, p-coumaryl alcohol]", "values": [{"measurement": "Synthetic rate relative to sinapyl alcohol 1S", "setting": "OsPMT; acyl acceptor compared with sinapyl alcohol 1S", "result": 6, "unit": "times"}, {"measurement": "FMT activity with monolignol", "setting": "[1]", "result": "active"}]}, {"molecule": "CC(C)(COP(=O)(O)OP(=O)(O)OC[C@H]1O[C@@H](n2cnc3c(N)ncnc32)[C@H](O)[C@@H]1OP(=O)(O)O)[C@@H](O)C(=O)NCCC(=O)NCCSC(=O)/C=C/c1ccc(O)cc1", "note": "[p-coumaroyl-CoA 2a, p-coumaroyl-CoA]", "values": [{"measurement": "Maximum reaction rate relative to caffeoyl-CoA 2b", "setting": "OsPMT; acyl donor compared with caffeoyl-CoA 2b", "result": "at least 5 fold"}, {"measurement": "Substrate quality as acyl donor for OsPMT", "setting": "OsPMT", "result": "good substrates"}, {"measurement": "Product formed by FMT from CoA thioester", "setting": "[1]", "result": "very little product"}]}, {"molecule": "B1", "values": [{"measurement": "Km", "setting": "[3]; [7]", "result": "15 ± 2", "unit": "µM"}, {"measurement": "Vmax", "setting": "[3]; [7]", "result": 0.486, "unit": "µmol/min/mg"}, {"measurement": "kcat", "setting": "[3]; [7]", "result": 0.39, "unit": "s⁻¹"}, {"measurement": "Km", "setting": "[3]; [8]", "result": "35 ± 5", "unit": "µM"}, {"measurement": "Vmax", "setting": "[3]; [8]", "result": 0.648, "unit": "µmol/min/mg"}, {"measurement": "kcat", "setting": "[3]; [8]", "result": 0.51, "unit": "s⁻¹"}, {"measurement": "Km", "setting": "[4]; [9]", "result": "281 ± 62", "unit": "µM"}, {"measurement": "Vmax", "setting": "[4]; [9]", "result": 3.69, "unit": "µmol/min/mg"}, {"measurement": "kcat", "setting": "[4]; [9]", "result": 2.93, "unit": "s⁻¹"}, {"measurement": "Km", "setting": "[4]; [10]", "result": "105 ± 12", "unit": "µM"}, {"measurement": "Vmax", "setting": "[4]; [10]", "result": 0.75, "unit": "µmol/min/mg"}, {"measurement": "kcat", "setting": "[4]; [10]", "result": 0.6, "unit": "s⁻¹"}, {"measurement": "Km", "setting": "[5]; [7]", "result": "27 ± 6", "unit": "µM"}, {"measurement": "Vmax", "setting": "[5]; [7]", "result": 0.355, "unit": "µmol/min/mg"}, {"measurement": "kcat", "setting": "[5]; [7]", "result": 0.28, "unit": "s⁻¹"}, {"measurement": "Km", "setting": "[5]; [8]", "result": "141 ± 14", "unit": "µM"}, {"measurement": "Vmax", "setting": "[5]; [8]", "result": 3.25, "unit": "µmol/min/mg"}, {"measurement": "kcat", "setting": "[5]; [8]", "result": 2.58, "unit": "s⁻¹"}, {"measurement": "Km", "setting": "[6]; [9]", "result": "92 ± 11", "unit": "µM"}, {"measurement": "Vmax", "setting": "[6]; [9]", "result": 0.515, "unit": "µmol/min/mg"}, {"measurement": "kcat", "setting": "[6]; [9]", "result": 0.41, "unit": "s⁻¹"}, {"measurement": "Km", "setting": "[6]; [10]", "result": "75 ± 5", "unit": "µM"}, {"measurement": "Vmax", "setting": "[6]; [10]", "result": 0.45, "unit": "µmol/min/mg"}, {"measurement": "kcat", "setting": "[6]; [10]", "result": 0.36, "unit": "s⁻¹"}]}]}
